Assay results from paper PMC2920317, “CHL1 Is a Selective Organizer of the Presynaptic Machinery Chaperoning the SNARE Complex” (PLoS ONE, 2010).

T1: Close homologue of L1 (CHL1) (mouse (endogenous in brain), UniProt P70232 26-1209)
T1 construct: CHL1, cell adhesion molecule of the immunoglobulin superfamily, endogenous in adult mouse brain; also called CALL; source: endogenous, mouse brain lysate; synaptosomes; synaptic vesicles and synaptic plasma membranes
T1 sequence (looked up): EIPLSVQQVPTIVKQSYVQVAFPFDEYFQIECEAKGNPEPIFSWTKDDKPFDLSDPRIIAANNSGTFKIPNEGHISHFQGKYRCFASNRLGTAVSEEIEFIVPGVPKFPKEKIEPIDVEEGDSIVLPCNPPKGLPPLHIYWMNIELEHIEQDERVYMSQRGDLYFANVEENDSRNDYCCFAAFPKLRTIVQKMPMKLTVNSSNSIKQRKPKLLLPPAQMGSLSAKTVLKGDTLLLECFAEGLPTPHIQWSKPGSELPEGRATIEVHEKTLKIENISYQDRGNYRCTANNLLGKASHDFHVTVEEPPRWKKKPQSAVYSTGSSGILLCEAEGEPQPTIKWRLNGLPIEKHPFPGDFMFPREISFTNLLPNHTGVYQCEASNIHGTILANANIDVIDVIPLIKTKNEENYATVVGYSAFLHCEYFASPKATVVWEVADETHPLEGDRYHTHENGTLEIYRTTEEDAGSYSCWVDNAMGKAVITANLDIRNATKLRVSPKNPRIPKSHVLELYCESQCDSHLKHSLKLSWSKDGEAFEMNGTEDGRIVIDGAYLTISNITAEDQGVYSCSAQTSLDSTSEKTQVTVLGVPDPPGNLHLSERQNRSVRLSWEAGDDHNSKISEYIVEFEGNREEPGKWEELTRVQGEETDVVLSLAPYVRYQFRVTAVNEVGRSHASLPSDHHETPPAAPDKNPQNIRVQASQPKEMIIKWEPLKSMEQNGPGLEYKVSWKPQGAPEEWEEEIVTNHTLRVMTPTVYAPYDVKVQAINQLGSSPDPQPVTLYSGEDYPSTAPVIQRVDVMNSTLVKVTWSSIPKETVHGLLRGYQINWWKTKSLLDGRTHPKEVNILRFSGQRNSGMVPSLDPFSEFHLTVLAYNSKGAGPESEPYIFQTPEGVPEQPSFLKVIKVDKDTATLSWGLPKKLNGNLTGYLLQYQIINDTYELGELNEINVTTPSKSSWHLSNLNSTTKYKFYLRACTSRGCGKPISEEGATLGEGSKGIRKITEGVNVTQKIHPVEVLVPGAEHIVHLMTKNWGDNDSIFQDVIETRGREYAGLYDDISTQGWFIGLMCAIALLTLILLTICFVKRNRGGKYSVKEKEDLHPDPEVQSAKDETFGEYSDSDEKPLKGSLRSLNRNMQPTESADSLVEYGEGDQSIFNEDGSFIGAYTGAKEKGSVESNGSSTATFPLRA

B1: small glutamine-rich tetratricopeptide repeat-containing protein, ubiquitous isoform (αSGT) (natural protein, mouse (endogenous in brain), UniProt Q8BJU0 1-315, looked up)
chain: MDNRKRLAYAIIQFLHGQLRHGGLSCDAQESLEVAIQCLETAFGVTLEDSDLALPQTLPEIFEAATSSKQEMPQDPRAPDRTPPSEEDSAEAERLKTEGNEQMKLENFEAAVHLYGKAIELNPANAVYFCNRAAAYSKLGNYVGAVQDCERAIGIDPGYSKAYGRMGLALSSLNKHAEAVAYYKKALELDPDNDTYKSNLKIAELKLREAPSPTGGVGSLDIAGLLNNPHFITMASSLMNSPQLQQLMSGMISGGHNPLGTPGSSPQQSDLASLIQAGQQFAQQMQQQNPEFVEQIRSQVVRSRTPSASHEEQQE
notes: αSGT, endogenous in adult mouse brain; also called alphaSGT; source: endogenous, mouse brain lysate; synaptic vesicles and synaptic plasma membranes
B2: syntaxin1B (natural protein, mouse (endogenous in brain), UniProt P61264 1-288, looked up)
chain: MKDRTQELRSAKDSDDEEEVVHVDRDHFMDEFFEQVEEIRGCIEKLSEDVEQVKKQHSAILAAPNPDEKTKQELEDLTADIKKTANKVRSKLKAIEQSIEQEEGLNRSSADLRIRKTQHSTLSRKFVEVMTEYNATQSKYRDRCKDRIQRQLEITGRTTTNEELEDMLESGKLAIFTDDIKMDSQMTKQALNEIETRHNEIIKLETSIRELHDMFVDMAMLVESQGEMIDRIEYNVEHSVDYVERAVSDTKKAVKYQSKARRKKIMIIICCVVLGVVLASSIGGTLGL
notes: syntaxin1B, SNARE complex protein, endogenous in adult mouse brain; also called synatxin1B; source: endogenous, mouse brain lysate and synaptosomes; immunoprecipitated from synaptosomes and held on beads

Biological target: T1, Close homologue of L1 (CHL1)
Test: co-IP; CHL1 immunoprecipitated from adult mouse brain lysates (50 mM Tris-HCl pH 7.5, 150 mM NaCl, 1% Nonidet P-40, 1 mM EDTA); protein A/G-agarose; Western blot; mock IP with non-specific Ig as control
Details: partners not purified

percent of the total pool co-immunoprecipitated [%]	Binder
46 ± 8.5	B1
15 ± 3.1	B2
